These results are taken from patent US20210054365A1.

The target in assay [1] is Sag1 (Saccharomyces cerevisiae) (UniProt P20840). As to the kind of experiment: cell-based or functional assay.
Assay [2] has the same target. As to the kind of experiment: cell-based or functional assay. This is another data set of the same source.
Another assay has as its target BclXL (UniProt Q07817). Briefly: affinity as tabulated ('known affinities'); method not stated.
The next assay deals with T1, BclB (UniProt Q9HD36).
T1 sequence (looked up): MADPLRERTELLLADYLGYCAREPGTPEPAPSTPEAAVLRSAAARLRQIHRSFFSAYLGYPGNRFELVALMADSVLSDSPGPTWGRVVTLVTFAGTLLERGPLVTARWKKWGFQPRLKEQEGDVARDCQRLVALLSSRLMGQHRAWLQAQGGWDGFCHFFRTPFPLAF
The assay is described as above.

Another assay addresses Bfl1 (UniProt Q16548). Described as above.
For a further assay, the target named is BclW (UniProt Q92843). The assay is described as above.
In another assay the target is Mcl1 (UniProt Q07820). Described as above.
In a further assay the target is Bcl2 (UniProt P10415). The description is as above.

Where two headings read alike, the source gives them in different places.

Chain of Bfl1 (Q16548 1-153 limits assumed): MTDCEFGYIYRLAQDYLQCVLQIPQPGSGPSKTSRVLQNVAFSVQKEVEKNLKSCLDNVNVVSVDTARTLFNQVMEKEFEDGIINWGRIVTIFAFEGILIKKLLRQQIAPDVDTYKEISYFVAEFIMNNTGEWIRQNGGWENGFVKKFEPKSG
Chain of Bcl2 (P10415 1-207 limits assumed): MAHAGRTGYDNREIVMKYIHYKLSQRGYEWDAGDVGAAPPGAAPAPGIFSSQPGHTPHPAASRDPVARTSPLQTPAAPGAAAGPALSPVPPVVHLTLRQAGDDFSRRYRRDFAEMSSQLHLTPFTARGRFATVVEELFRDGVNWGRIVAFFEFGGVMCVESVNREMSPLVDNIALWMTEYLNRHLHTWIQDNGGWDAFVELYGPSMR
Chain of BclW (Q92843 1-182 limits assumed): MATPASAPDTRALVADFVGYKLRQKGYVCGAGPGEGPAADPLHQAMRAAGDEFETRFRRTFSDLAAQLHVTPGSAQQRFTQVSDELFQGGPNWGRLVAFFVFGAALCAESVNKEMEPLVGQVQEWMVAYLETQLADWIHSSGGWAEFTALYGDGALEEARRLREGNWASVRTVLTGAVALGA
Chain of Sag1 (Saccharomyces cerevisiae) (P20840 20-627): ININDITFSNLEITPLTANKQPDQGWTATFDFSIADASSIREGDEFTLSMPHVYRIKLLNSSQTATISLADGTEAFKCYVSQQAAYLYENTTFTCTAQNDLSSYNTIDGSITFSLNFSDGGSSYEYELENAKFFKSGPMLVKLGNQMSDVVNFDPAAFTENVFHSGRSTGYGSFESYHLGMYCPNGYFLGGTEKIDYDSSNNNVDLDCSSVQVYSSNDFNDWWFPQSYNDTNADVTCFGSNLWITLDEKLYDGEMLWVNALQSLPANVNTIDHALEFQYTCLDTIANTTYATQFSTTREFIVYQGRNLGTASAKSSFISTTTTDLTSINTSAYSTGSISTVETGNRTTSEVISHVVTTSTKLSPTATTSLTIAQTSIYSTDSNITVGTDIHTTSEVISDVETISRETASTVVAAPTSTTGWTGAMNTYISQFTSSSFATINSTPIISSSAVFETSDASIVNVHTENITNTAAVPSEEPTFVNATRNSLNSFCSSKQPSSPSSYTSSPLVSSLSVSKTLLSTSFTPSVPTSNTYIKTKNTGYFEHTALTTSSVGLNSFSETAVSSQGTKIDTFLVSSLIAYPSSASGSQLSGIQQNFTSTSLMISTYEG
Chain of BclXL (Q07817 1-209 limits assumed): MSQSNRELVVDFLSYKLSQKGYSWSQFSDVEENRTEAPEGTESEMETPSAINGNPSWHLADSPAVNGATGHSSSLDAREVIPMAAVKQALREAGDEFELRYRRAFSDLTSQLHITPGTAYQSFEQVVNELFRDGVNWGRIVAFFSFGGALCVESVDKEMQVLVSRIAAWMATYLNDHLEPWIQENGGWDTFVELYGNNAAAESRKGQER
Chain of Mcl1 (Q07820 whole entry): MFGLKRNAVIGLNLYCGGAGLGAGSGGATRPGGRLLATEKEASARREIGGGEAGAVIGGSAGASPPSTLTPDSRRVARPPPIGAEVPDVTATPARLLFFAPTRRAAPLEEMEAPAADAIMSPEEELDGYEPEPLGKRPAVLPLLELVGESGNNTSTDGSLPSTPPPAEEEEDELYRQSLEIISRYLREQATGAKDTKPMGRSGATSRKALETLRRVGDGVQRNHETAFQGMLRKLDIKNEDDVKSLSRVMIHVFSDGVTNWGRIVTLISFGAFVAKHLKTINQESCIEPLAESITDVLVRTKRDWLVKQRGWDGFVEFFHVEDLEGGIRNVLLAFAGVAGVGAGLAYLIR

On to Aga2 (from UniProt P32781 19-87), for which the mating efficiency in assay [1] was over 50%; in assay [2] it was 57.1%.

B1: XINDI-XCDP07 (designed binder, from a related filing)
chain: ADPKKVLDKAKDRAENVVRKLKKELEELYKEARKLDLTQEMRDRIRLAAIAARIAAFGDIFHAIMEALEEARKLKKAGLVNSQQLDELKRRLEELDEEAAQRAEKLGKEFELKLEY
B1: the Kd in the assay with BclXL worked out at 0.59 nM; in the assay with BclB, 107 nM; with Bfl1 it was 7050 nM; with BclW it was 14.9 nM; in the assay with Mcl1, 17.4 nM; in the assay with Bcl2 it was 3.81 nM.

B2: BINDI-BCDP01 (designed binder, from a related filing)
chain: ADPKKVLDKAKDQAENRVRELKQELERLYKEARKLDLTQEMRRKLEWRYIAAMLKAIGDILNAIAQAENEADKLKKAGLVNSQQLDELRRRLEELAKEAARKAHDYGREFQLKLEY
On to B2, for which the equilibrium dissociation constant (Kd) with BclXL was 20.2 nM; with BclB it was 8.33 nM; in the assay with Bfl1 it was 518 nM; in the assay with BclW it was 2010 nM; with Mcl1 it was 0.46 nM; in the assay with Bcl2, 17.3 nM.
